Experiments:
Experiment in all cases: cell-based or functional assay
C1C252 (human) = C1C252 (human) (UniProt P11836)
C1C3 (human) = C1C3 (human) (UniProt P11836)
[1] = biological target: CD20WT (wild type amino acidic sequence of human CD20) (human) (UniProt P11836)

Measured: reduction in the hCD20+ cell population in mice (GFP+ T cells in blood)

2H7 mouse anti-human CD20 antibody
65%: all assays above

— patent US20260193316A1
